What was measured:
[1] = biological target: KirBac1.3-GIRK1 chimeric protein (GIRK chimera) in MSP1E3 nanodiscs (mouse | Burkholderia xenovorans) (UniProt P63250); experiment: NMR titration; 1H-13C HMQC (methyl-TROSY) of 11 μM Gα[ILVA]βγ with or without 22 μM (2 eq.) GIRK chimera-nanodiscs; 20 °C; 20 mM HEPES-NaOH pH 7.0, 150 mM KCl, 0.5 mM GDP, 0.1 mM TCEP; signal intensity reductions; apparent Kd estimated
[2] = biological target: NLuc-tagged GIRK (GIRK1/GIRK2-Luc) (human) (UniProt P48549); experiment: FRET or BRET; agonist-induced BRET in living HEK293T cells between Venus-Gβγ (acceptor) and GRK-Luc or GIRK-Luc (donor); co-expressed GPCR (DOR or D2R), PTX S1 and a PTX-insensitive Gα (C351A); agonist 10 μM, then antagonist; PBS with 0.5 mM MgCl2 and 0.1% glucose; read 3 min after ligand
[3] = biological target: T1, Gβγ dimer (human Gβ1 and His6-tagged human Gγ2 (C68S)) (human, UniProt P62873 1-340; P59768 1-71, C68S); experiment: SEC; purified Gα and Gβγ mixed with a slight excess of Gβγ; Gαβγ isolated by gel filtration on Superdex 200; settings: both partners purified
T1 construct: G protein β1 subunit (Gβ1), human; G protein γ2 subunit (Gγ2), human; also called [non-labeled]βγ

Chain of NLuc-tagged GIRK (GIRK1/GIRK2-Luc) (human) (P48549 whole entry, chain 1 of 2): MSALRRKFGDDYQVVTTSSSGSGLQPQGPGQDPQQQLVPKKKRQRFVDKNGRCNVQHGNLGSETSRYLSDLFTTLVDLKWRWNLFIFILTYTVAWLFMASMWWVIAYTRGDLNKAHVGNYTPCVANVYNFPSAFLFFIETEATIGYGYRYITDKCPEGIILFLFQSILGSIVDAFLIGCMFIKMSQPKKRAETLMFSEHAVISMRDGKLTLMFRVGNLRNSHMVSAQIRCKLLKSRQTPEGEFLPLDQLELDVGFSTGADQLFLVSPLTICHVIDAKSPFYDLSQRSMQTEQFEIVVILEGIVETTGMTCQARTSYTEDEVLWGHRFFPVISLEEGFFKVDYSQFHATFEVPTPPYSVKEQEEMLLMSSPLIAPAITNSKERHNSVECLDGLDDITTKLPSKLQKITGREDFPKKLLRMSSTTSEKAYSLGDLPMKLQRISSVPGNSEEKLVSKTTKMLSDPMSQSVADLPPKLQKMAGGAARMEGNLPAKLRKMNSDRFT
Chain of NLuc-tagged GIRK (GIRK1/GIRK2-Luc) (human) (P48051 whole entry, chain 2 of 2, further chain): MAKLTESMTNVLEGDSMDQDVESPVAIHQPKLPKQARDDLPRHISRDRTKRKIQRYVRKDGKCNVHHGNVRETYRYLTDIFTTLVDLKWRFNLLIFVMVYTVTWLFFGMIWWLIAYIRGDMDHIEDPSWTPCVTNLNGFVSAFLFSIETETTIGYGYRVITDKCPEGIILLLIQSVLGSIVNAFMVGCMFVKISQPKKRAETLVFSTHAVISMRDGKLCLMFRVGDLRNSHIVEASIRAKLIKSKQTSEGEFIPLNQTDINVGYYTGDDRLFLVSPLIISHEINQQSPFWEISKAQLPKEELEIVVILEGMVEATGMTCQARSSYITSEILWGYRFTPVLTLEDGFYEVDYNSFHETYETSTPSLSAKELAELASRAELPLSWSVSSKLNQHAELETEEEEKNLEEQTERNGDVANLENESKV

Q: “Gαi3βγ heterotrimer (Gαi3[ILVA] complexed with non-labeled Gβ1γ2(C68S)), GDP-bound (from UniProt P08754 1-354; P62873 1-340; P59768 1-71)” was tested. Which Kd [1] did it give?
A: > 200 µM

Q: For “Venus-tagged Gβγ (Venus 156–239-Gβ1 with Venus 1–155-Gγ2) (from UniProt P62873 1-340; P59768 1-71) (complex)”, which specificity factor (ΔBRET GIRK/ΔBRET GRK), with D2R and Gαi3 [2] is on record?
A: 0.303

Q: And the specificity factor (ΔBRET GIRK/ΔBRET GRK), with D2R and Gαiqi [2]?
A: 0.157

Q: And the specificity factor (ΔBRET GIRK/ΔBRET GRK), with D2R and Gαqi5 [2]?
A: 0.091

Q: What about the specificity factor (ΔBRET GIRK/ΔBRET GRK), with D2R and Gαqiqi5 [2] of the same molecule?
A: 0.236

Q: What about the specificity factor (ΔBRET GIRK/ΔBRET GRK), with DOR and Gαi3 [2] of the same molecule?
A: 0.286

Q: What about the specificity factor (ΔBRET GIRK/ΔBRET GRK), with DOR and Gαiqi [2] of the same molecule?
A: 0.148

Q: What about the specificity factor (ΔBRET GIRK/ΔBRET GRK), with Gαi3-q(αA) [2] of the same molecule?
A: 0.159

Q: What about the specificity factor (ΔBRET GIRK/ΔBRET GRK), with Gαi3-q(αB) [2] of the same molecule?
A: 0.248

Q: What about the specificity factor (ΔBRET GIRK/ΔBRET GRK), with Gαi3-q(αE) [2] of the same molecule?
A: 0.249

B1: Gαiqi (chimeric Gα: GTPase domain of Gαi3, helical domain of Gαq), purified (other, human, UniProt P08754 1-62, looked up)
chain: MGCTLSAEDKAAVERSKMIDRNLREDGEKAAKEVKLLLLGAGESGKSTIVKQMKIIHEDGYSDEDKRGFTKLVYQNIFTAMQAMIRAMDTLKIPYKYEHNKAHAQLVREVDVEKVSAFENPYVDAIKSLWNDPGIQECYDRRREYQLSDSTKYYLNDLDRVADPAYLPTQQDVLRTRVKTTGIVETHFTFKDLYFKMFDVGGQRSERKKWIHCFEGVTAIIFCVALSDYDLVLAEDEEMNRMHESMKLFDSICNNKWFTETSIILFLNKKDLFEEKIKRSPLTICYPEYTGSNTYEEAAAYIQCQFEDLNRRKDTKEIYTHFTCATDTKNVQFVFDAVTDVIIKNNLKECGLY
notes: Gαi3, human, GTPase domain residues 1-62; Gαq, human, helical domain residues 69-180; Gαi3, human, GTPase domain residues 176-354; also called Gαiqi[ILVA]; source: E. coli BL21-CodonPlus (DE3)-RP, purified in the same way as the wild-type Gαi3; not shown: His10, N-terminal, cleaved
Q: Does B1 bind [3]?
A: binds

Source: paper PMC6494913 (Nature Communications, 2019)
